# According to the supplement of paper PMC12636428:
# Tested on: Saccharomyces cerevisiae
# Test: transcriptional activation domain activity (GFP:mCherry ratio, weighted mean of sorted bins, harmonized to initial dataset scale) (arbitrary fluorescence ratio units); higher = stronger transcriptional activation
# Settings: beta-estradiol 1 µM; induction time 4 h
# Outline: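 Protein tiles carrying barcodes and fused to an estradiol-inducible synthetic transcription factor were placed at the URA3 locus of yeast diploids with a GFP reporter. Following 4 hours at 30 °C in SC with 1 uM beta-estradiol, cells were sorted into 8 GFP:mCherry bins, barcodes were sequenced, and tiles with fewer than 50 reads were discarded. Activation activity is given as the read-weighted mean of bin median fluorescence, averaged across barcodes and linearly mapped to the initial dataset scale.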
row,Sequence,transcriptional activation domain activity
1,NNNSRSTEDSEDDLAIVGHGTGVERLGGLDALILRQRLLALLIRVAEALPEDF,15200
2,PPCLKLAGWLAFVVGSFCQSTNLVVIQISQNNWDCFSIWRTLILLVIFFSLPA,58500
3,SSIRQMLKISLVRPLHMLLTEPVLFLFAVSLHPFRPRIYLMLEAIPLVFTRLY,40900
4,MYHIPWPQVLWVGYQLRPTQIMGIFCSHLSVVLLVLPTPYYFLFHVLFLLWAS,48900
5,IRGNMSGSEFHWTCKSLGLCGILVRCLAWYCISKMYVLPTCYRRMYCCEVYKD,49700
6,VVCRYYHLMMGRTFILLIFTQTLSGLVVYHGVCRSWEVLGCIAHLIKGGIFFF,55800
7,NLMGSQARSNSQTPTASTIYEEAESQSSYLDDMFRTSQGGRPVTQNSISSIGQ,56100
8,VVLYMLRFLGLMHIMLFSHIDQRCKDFAKVYLRGRIIRYTCPFFSRSSLHKIV,49400
9,KILVQAFKAVFTSPSSAKEADGDGEGADIIENNRRARRALYQVKVKTCVASII,42000
10,KQYCVRPNSGRIEAGKEVEVQVLLQAMKEDPPPDARCRDKFLVQSVAVTADQE,37200
11,MLMIVVNDTIFYITVISHILLAYYGLVTIDNGLLLSNPTWYCPLNYTLIATCI,61700
12,MIHSAIIAWYCVFGLVFLLIVICIFHQFSSHRSSPWYFIQNWTRAFGFLSYIL,66700
13,CHLLLVCLFYDFLTIEYYLYGSLLLLLLHDCFLLKICEFIVRPTCLPGLFHAK,60500
14,IVEGLLGVDFIWQDNLPDLIDQFTNLLTLGLDFQAIDFHGGLSWNYLPSTFIN,63500
15,RDANQCLELYPDIRILLVRLLEYPELMVITPIRMAIRCGLLYFSHLGSDRPQA,58800
16,MEHLVYHAPGVLPKMECRPPFRLCLLLLILFLFLFLCCQKVPLWIFACRFCCG,41200
17,MLLLGYILYLFYYGRYLYGILAFYCFSLLYVTLLPFIFVSARLFLHFTQIGIR,53600
18,IKVQYKGGLIGHQFKDLAQIMSFILYDLGPDTLIECWVRLGWFMSLLWYPKIQ,58700
19,RPWRWSFGVYVLCRTLALGGIISAFVGFSPFNEFHCDVWLRFLLVFSWFAIAS,66600
20,RKKRERRERLKRGKKGGKKGDEDGAGDGEKGKGGKVKARVVIREDAEGLGGEG,30900
21,MSWPFPFFFLLFRLFLSLFRGGCFWVQIFVFIPEYLVYSILFSFFFTVIYLFV,40400

row,Sequence,transcriptional activation domain activity
1,DIIPDHYKHKPISLYDPRKAPLLNQYRLIVPRSRNIIEVCQFIILLLLYCLSM,78100
2,MLTILAQNQWFYIIVYIILSYLVIFIIGLFPSVLFFRLRHLHYSFSFYLEYLA,32700
3,AAPAAPADDGFQSVPGRNRGQREGGGNYRSRGGYRGEGRGRGGYRGEGRGRGR,37000
4,PAADKSDAPRKPVSISIGGGAKKAEEAKPEPAKAASEGPAPAGGVAAVKAAAA,39300
5,YIPVNYFLVVLYSNKEYPGLYKEIEKGLILLYHICTIRNDGTMFLNMKLYKNK,36000
6,NRSDEPELDVKELNRHVNADNLSDLQLDDSQKMGYVYKCLGAGIHLLRLSLRL,39000
7,DSDGDEEPGKKRQKTALSCGECKRRKIKCDRKVPCVSCIKRGEPEKCNWEEAR,30900
8,PCMLRLLIWIAFKLVPENSSIREPLNFLLDHPRRCYTLLFPSGPTWTLFAFLV,60500
9,SFPIEGLYCLIKSLLKLKNLSLHGKIWWGDLKMLLPLLSKLDFWGIGELLLFD,67000
10,INSTIHNLLEVVLLPDLCGFCCFSMRFVVLLDLIGTLTLPVSAVYLVYLIYVI,59000
11,MTSRLHIICHICVFYGYILMFQAITSYHYFILLCILILILYLLTFILAHFYKY,36800
12,NEEKGGKDAASRESAVHVYGTLGSRIGRGPRSPSVLSRSFHDIHDCLACVLVV,56900
13,MYLFFFFFFFGWVLSLLLYVFFGLGIIGIGIVLFVFVLAFFFLFLGGIFFCGL,43900
14,MMLLLMLMILMMILTMMMLLLLHKQENEGCVLFLFLLWWLWLWFWLWCCWKSS,35300
15,FQFPIDFTNDFSDGFSLDADIGQFMDPLLLTSFLPSPIPFDDGTELSSLELLH,167000
16,LWELLLNILKENGAKEKCILPCIVDFLPKNLVLVHCIHAYLHFRILVGLQCMT,33700
17,MSFLGLSFFAYLLGVGWILLFCLSFGLPQPLSFITWDCLTRGGFFFLLYFFCF,44500
18,MFFLFPFLTFGYPAFNLKLCLLIQSNSYCHSFSSLSLYALLLLYLRLLLILLI,71100
19,MGLANGDALITECGGVTFGFGFFLIFVGFWIGLDQVDGVWFLTLVWLLALFFL,53900
20,SVMKTLLDERRTSGTQPTTAPVAAEEPRLENVALENFVSIGWKLLDDSELGWY,71200
21,HHFVCAFYFQDSWGLGLMKRLLIVVCLLLATYVFPLPLTSPPWSFIWKQSWVI,48300
